The values that follow come from the DeepSol protein solubility set.

This data set in a line: soluble on expression in E. coli; label from the status in PepcDB or PDB records.
“MIARKRRARTIHSRYPIGIYGSIVMTDIAQLLGKDADNLLQHRCMTIPSDQLYLPGHDYVDRVMIDNNRPPAVLRNMQTLYNTGRLAGTGYLSILPVDQGVEHSAGASFAANPLYFDPKNIVELAIEAGCNCVASTYGVLASVSRRYAHRIPFLVKLNHNETLSYPNTYDQTLYASVEQAFNMGAVAVGATIYFGSEESRRQIEEISAAFERAHELGMVTVLWAYLRNSAFKKDGVDYHVSADLTGQANHLAATIGADIVKQKMAENNGGYKAINYGYTDDRVYSKLTSENPIDLVRYQLANCYMGRAGLINSGGAAGGETDLSDAVRTAVINKRAGGMGLILGRKAFKKSMADGVKLINAVQDVYLDSKITIA”: the “soluble on expression in E. coli” value is reported as “soluble”.
Next, “MIASLDELYHSELFFLPVMDENARLVGLEIIATFAAEDGAVRMPTELVAPRLSVEEQYCLFVEKLALLETCQHFFIQHKLIAWLNLPPAISDLLLLDSELFSRAARFPFLELAINENYPGLNQGKNNETLANLAMHFPLMLANFGAGEASTKAIFDGLFKRVMLDKNFIQQRAEMISFEPFMHAIVAQISSSCESLMIAGIDTEAMFARAAPLGFSAFQGGLWPPVPVSQLIKLVQR”: “not soluble”.
Regarding “MICNNQREFDNSLKCYQTALVTSQWTVRIRNLNWVLQEKVKSLYVEYQIWRGIDQTNKANPNTLRTNLDQVLAQLETFPTASASPIDSGSAGQLTPFHRSHFHPYKDNKRMRFPSNKEGGLCNSLLSSHYEWC”, the “soluble on expression in E. coli” value is “not soluble”.
For the sequence “MIDHNIRTGKAFFGRRKGKRLRNSQLVLIKKLFPTLDINLNNSVPLNLTSLFSRKVKEVRLEIGFGGGEHLLHEMKHFPQTGFIGIEPFINGMAKMLMSLEEHKQYQNQLRLYNDDATGLLDWLPNASLDGIDLFYPDPWPKKKHWKRRFINMKNLNRFARVLKTGKKFRFASDIESYVNWTLYHCSNHHSFEWEAKNPKDWKTPYTLWSGTRYEAKALREGRAPTYLTFIKK”, the “soluble on expression in E. coli” value is recorded as “not soluble”.
Next, “MIDIQGIKEALPHRYPMLLVDRVLEVSEDTIVAIKNVTINEPFFNGHFPQYPVMPGVVIMEALAQTAGVLELSKPENKGKLVFYAGMDKVKFKKQVVPGDQLVMTATFVKRRGTIAVVEAKAEVDGKLAASGTLTFAIGN”: “soluble”; “MIDITLPLTDIHRHLDGNIRAQTILDLGRQFNIALPAQTLETLIPHVQVTSTEPDLVSFLTKLDWGVKVLASLDACRRVAFENIEDAARNGLHYVELRFSPGYMAMAHQLPIAGVVEAVIDGVRDGCNTFGVEARLIGIMSRTFGEAACLQELDALLAHRENITALDLAGDELGFPGSLFLSHFNRARDAGWHITVHAGEAAGPESIWQAIRELGAERIGHGVKAVEDRALMDFLAQQRIGIESCLTSNIQTSTVASLADHPLKTFLEHGVLASLNTDDPAVQGVDIIHEYHVAAPAAGLSREQIRQAQINGLEIAFLSDSEKRALREKVAEA”: “not soluble”; “MIDMVVLTKEKIIEIIEEKTGMSREKIEEEIRRIMEEDPHLSEQGAAALLAERLGIDLIEREETSLMKISDLYPGMDPREVNIIGRVLKKYPVREYTKKDGSIGRVASLVIYDDSGRARVVLWDGKVAEYYNKIEVGDVIKVLDAQVRESLSGLPELHINFRARIILNPEDPRVDSIPPLEEVRIATYTRKKIGDIEPGDRFIEIRGTIAKVYRVLTYDACPECKKKVDYDPGTGVWICPEHGEVEPIKMTILDFGLDDGTGYIRVTLFGDDAEELLGVSSEEIAEKIKELENSGLTTKEAARKLAEEEFYKIIGKEIVVRGNVIEDRFLGLILRASSWEEVDYRKEIENIKEELEKLGVMLEHHHHHH”: “not soluble”.
Next, “MIDNPTPKSSMTFKELYDEWLLVYEKEVQNSTYYKTTRAFEKHVLPVIGSTKLSDFTPMELQNFRNDLSEKLKFARKLFGMVRKVFNHAALLSYIQANPALPVTSQGIKKKVEELEHHHHHH”: “soluble”.
Next, “MIDPVCGMKVDKNAKFKSTYNGKEYYFCSEHCKVEFDRNPIKYTR”: “not soluble”; “MIDTPDLETRAAPEDHHALRLWLRMLTCCNLIESEIRSRLRTEFDTTLPRFDLMAQLQRAPKGMKMGELSRHMMVTNGNITGITDQLEKEGLVVRTKVESDRRSSVLKLTPQGKRTFARMARAHESWVTGMLDDLPEASRHAMYKALGELKLQVVAHRALAQRDGAS”: “not soluble”; “MIEIATSPATTTLVIAGDLDLAERDQFPEIAARVVGLRRQLLVIDMCRVTFMDSTGAAFLISLADSGRKRGGATVLRGCDDRDLFVLEVCGALELFRIDPDHACAPKTPATGVPAVEERPGRTR”: “not soluble”.
Regarding “MIEISTSSTTTTLLVAGDLDLAEREQFPEVTARVVGLRRQLLVIDMCRVTFMDSTGAAFLISLADAGRRRGGATVLRGAADRDLFVLEICGALELFRIDADHHCELGAELPSAPEGAPAPA”, the “soluble on expression in E. coli” value is recorded as “not soluble”.
For “MIESVLLLVSGLPGSGKSTLARGMAEALAWPCLDKDDFLEALFDARGIGDAAWRRALSREADSRFLAALQAAPRAVACSWWRHPRGEGGSGTPIGGLARPGRLVLELHCRCPAELAAARFARRVRHPGHLDAQRDPGALSLQLRRAERLGPLGLGQCLILDASVQTDLSGALAWTRDALAAGALADPPRHPLEHHHHHH”, the “soluble on expression in E. coli” value is listed as “not soluble”.
Next, “MIEWQDLHHSELSVSQLYALLQLRCAVFVVEQNCPYQDIDGDDLTGDNRHILGWKNDELVAYARILKSDDDLEPVVIGRVIVSEALRGEKVGQQLMSKTLETCTHHWPDKPVYLGAQAHLQNFYQSFGFIPVTEVYEEDGIPHIGMAREVIQA”: “soluble”; “MIFSDWPWRHWRQVRGETIALRLNDEQLNWRELCARVDELASGFAVQGVVEGSGVMLRAWNTPQTLLAWLALLQCGARVLPVNPQLPQPLLEELLPNLTLQFALVPDGENTFPALTSLHIQLVEGAHAATWQPTRLCSMTLTSGSTGLPKAAVHTYQAHLASAQGVLSLIPFGDHDDWLLSLPLFHVSGQGIMWRWLYAGARMTVRDKQPLEQMLAGCTHASLVPTQLWRLLVNRSSVSLKAVLLGGAAIPVELTEQAREQGIRCFCGYGLTEFASTVCAKEADGLADVGSPLPGREVKIVNNEVWLRAASMAEGYWRNGQLVSLVNDEGWYATRDRGEMHNGKLTIVGRLDNLFFSGGEGIQPEEVERVIAAHPAVLQVFIVPVADKEFGHRPVAVMEYDHESVDLSEWVKDKLARFQQPVRWLTLPPELKNGGIKISRQALKEWVQRQQ”: “soluble”; “MIFSKKDIQEVLPADVTGRSVAHPKRWLVALVRISHEKKTSERLSKMGIENFLPVQQEVHQWSDRRKVVERVLLPMMIFVHVDMYEQKEVLTLGSISRYMVLRGESTPAVIPDEQMHRFKFMLDYSDEAINMSTTPLSPGTKIKVIKGPLSGLQGELVTVNGKSKVAVRLTMLGCAFVDIPVGCVEPLEK”: “not soluble”.
Turning to “MIGFAYLRLQKPSVYVIASQHFDGSIAAGLFESFGFKNIRGSSKKGGVKVLIEGLKRLKEGCDVAITPDGPKGPRHSIADGVIALAQKSGVGISACRVVCKNAWRLNTWDQFEIPKPFSEVYYYMLESVIIPKEWELSRAKEYLKTRMDSVGFEEPQRGLGALEHHHHHH”, the “soluble on expression in E. coli” value was “soluble”.
Next, “MIGKEEIHRIRELIGAKEGPVLSLYVDVNPAKPENAGRAYALRAKDAIKALEVPGDLSERVLEVLQNQVLEARTAVFFAGEDLFEVLPLQVELPLVNSVKTAFLDEKAGRYLVDGVLAHWGEPFLLPLVYALDEYERYGIVYVDRERWRVFEVFLGEIEEVHDAFLALDTEAWRRLSLDAPGRRFNLGGIARGGAGQDLFAKRLEAWEERFYKALAHELERLSEARGFTRLVLMGPEEHTKLFLGHLPKRLRERVVAELPSLPHPGASPGEVLKRLEPVLEEVERREEVKLLERLEEAYPKAAFGPEVLARVQEGRVEVWVLPWHLEQEVYLCQDFAFADEAQALAYCESPEKKPLAAVLASLAVGYATKLEFVRGEAENRLLERGGMAALLRW”: “soluble”.
As for “MIGKKILGERYVTVSEAAEIMYNRAQIGELSYEQGCALDYLQKFAKLDKEEAKKLVEELISLGIDEKTAVKIADILPEDLDDLRAIYYKRELPENAEEILEIVRKYI”, the “soluble on expression in E. coli” value is reported as “soluble”.
